{"source": "patent US20250011391A1", "about": "“ULTRA LIGHT-SENSITIVE NEUROPSIN-BASED OPTOGENETIC TOOL FOR ACTIVATING G q-COUPLED SIGNALING AND/OR ACTIVATING CELLS” (GENANS BIOTECHNOLOGY CO., LTD, priority 2021, published 2025)", "molecules": {"B1": {"name": "cOpn5: Chicken (Gallus gallus) Opn5 (neuropsin) ortholog, SEQ ID NO:1, GenBank NM_001130743.1 (protein, listed as Gallus lafayetii)", "chain": "MSGMASDCNSSSQEEYLPHYVQQEDPFASKLSREADIIAGFYLTVIGILSTLGNGYVIFMSSKRKKKLRPAEIMTVNLAVCDLGISVVGKPFSIISFFSHRWIFGWMGCRWYGWAGFFFGCGSLITMTAVSLDRYLKICHLAYGTWLKRHHAFICLALIWAYATFWATVPFAGVGSYAPEPFGTSCTLDWWLAQASVAGQAFVLSILFFCLLFPTAVIVFSYVKIILKVKSSTKEVAHYDTRIQNSHILEMKLTKVAMLICAGFLIAWIPYAVVSVWSAFGQPDSVPIQFSVVPTLLAKSAAMYNPIIYQVIDCKFACCRSGGPKTLQKKSSLKESRMYTLSSHRDSAALSGTQLEV"}}, "key": {"[1]": {"system": "Gq signaling in HEK 293T cells", "assay": "IP1 accumulation in Opn5-expressing HEK 293T cells", "assay_type": "cell-based", "details": "continuous light 3 min; 100 μW/mm2; 470 nm", "method": "Whether heterologous expression of the Opn5 orthologs from chicken, turtles, humans and mice (which share 80-90% protein sequence identity) have the capacity to mediate blue light-induced Gq signaling activation within HEK 293T cells is tested (FIG. 1a and table 7). Blue light for stimulation and the red intracellular calcium indicator Calbryte™ 630 AM dye are used to monitor the relative Ca^2+ response (FIG. 1b).\nf, YM suppressed the IP1 accumulation evoked by continuous light stimulation (3 min; 100 μW/mm^2; 470 nm) in cOpn5-expressing HEK 293T cells (Left). ***P<0.0001, *P=0.0128; Tukey's multiple comparisons test."}, "[2]": {"system": "GABA neurons in the zona incerta (ZI) of VGAT-Cre mice", "assay": "Food-foraging behavior task", "assay_type": "in vivo, mouse", "details": "vs EGFP-expressing mice", "method": "Finally, the utility of cOpn5-mediated optogenetics for modulating animal behavior is assessed. The lateral hypothalamus (LH) is a brain center with known functions in reward processing and feeding behaviors^54,55. cOpn5 is expressed in the LH GABAergic neurons of VGAT-Cre mice and implanted optical fibers to deliver light pulses into the LH of freely behaving mice (FIG. 8g). […] Electrophysiological recordings on LH and ZI cOpn5-expressing neurons are performed to characterize the response profiles. The injection sites and placement of optical fibers are confirmed by whole brain slices (FIG. 10a-c). […] Thus, cOpn5 is effective for rapidly, accurately, and reversibly modulating animal behavioral states.\ni, Schematic diagram of the experimental setup for food foraging behavior. High-fat food pellets were used. cOpn5-EGFP was expressed in GABAergic neurons within the zonal incerta (ZI) of VGAT-Cre mice. EGFP was expressed as a control.\nj, Summary of cOpn5-mediated food foraging behaviors. Foraging time percentage was calculated upon receiving light stimulation until the mouse found the hidden food. ****P<0.0001; n=6 mice; unpaired t test. Error bars indicate S.E.M."}, "[3]": {"system": "astrocytes within the mouse S1 cortex", "assay": "In vivo two-photon imaging (920 nm) of ATP release (GRABATP sensor) following astrocyte activation", "method": "The performance of cOpn5-mediated optogenetics in vivo is tested. Astrocytes represent an important population of non-excitable cells in the central nervous system, over which optogenetic tools have achieved only limited success to date^42. ATP is known as a messenger for inter-astrocyte communication; however, the real-time impacts of intracellular Ca^2+ on ATP release have not been visualized. Ultrasensitive GPCR Activation-Based ATP sensor GRABATP is used to monitor changes in extracellular ATP levels. Specifically, cOpn5 and the GRABATP sensor are expressed in the mouse S1 sensory cortex following the infusion of AAV vectors containing the GfaABC1D promoter (FIG. 6a), which is commonly used to drive gene expression in astrocytes.\nTwo-photon imaging of GRABATP signals from head-fixed awake, behaving mice is performed (FIG. 6a). It is initially expected that, in addition to the 920 nm light from pulsed laser for two-photon imaging, blue light pulses would be required to stimulate ATP signals. Strikingly, the 920 nm light itself, delivers for imaging, triggered massive ATP flashes in the cOpn5- and GRABATP-expressing mice, but not in mice that expressed the ATP sensor but lacked cOpn5 expression. Individual ATP flashes typically range in diameters of 20-100 μm and lasted for ˜1 min. The flash frequency gradually increases following ˜1 min of initial quiescence and peaked at the level of ˜50 flashes per min within the imaging area (640×640 μm^2) in ˜5 min (FIG. 6b, c and FIG. 7a). Moreover, high-frequency ATP flashes also occurs in the repeated trials (FIG. 7b).\na, Schematic diagram of the experimental setup for in vivo two-photon imaging (920 nm) of ATP release following cOpn5-mediated astrocyte activation. Images show the expression of cOpn5 (red) in astrocytes and the expression of a GRABATP sensor (green) in astrocytes within the mouse S1 cortex. Scale bar, 100 μm."}, "[4]": {"system": "primary astrocyte cultures", "assay": "Light-induced Ca2+ transients in cOpn5-expressing primary astrocyte cultures", "assay_type": "cell-based, mouse", "details": "cOpn5-expressing astrocytes; Calbryte 630 AM", "description": "cOpn5 optogenetics allows spatially precise control of cellular activity. Restricting brief light stimulation (63 ms) into a subcellular region of individual cOpn5-expressing HEK 293T cell results in the immediate activation of single cell. […] The findings are extended into primary cell cultures. cOpn5 is expressed in primary astrocyte cultures prepared from the neonatal mouse brain with AAV vectors for bicistronic expression of cOpn5 and the EGFP marker protein (FIG. 5a). […] If the light stimulation (63 ms) is precisely restricted to only subcellular region of an individual cOpn5-expressing astrocyte, Ca^2+ signal propagation within the individual cell is observed (FIG. 3f). Resembling the tests in HEK 293T cells, wave-like propagation of Ca^2+ signals from the stimulated astrocyte that proceeded gradually to more distal, non-stimulated, astrocytes is observed (FIG. 3g, h).\na, cOpn5 was expressed in cultured primary astrocytes using AAV-cOpn5-T2A-EGFP (green). Astrocyte identity was confirmed by GFAP immunostaining (red). Scale bar, 20 μm.\nb, Pseudocolor images of the baseline and peak Ca^2+ signals following light stimulation of cOpn5-expressing astrocytes. Scale bar, 20 μm.\nc, Plot of Ca^2+ signals and heat map representation of Ca^2+ signals across trials (n=25 cells)."}, "[5]": {"system": "neurons in slice preparations of the motor cortex, hippocampus, and dorsal striatum", "assay": "Whole-cell patch-clamp recording of cOpn5-expressing neurons in slices", "assay_type": "cell-based, mouse", "description": "The effect of light-induced cOpn5 activation on the electrophysiological properties of neurons in slice preparations of the motor cortex, hippocampus, and dorsal striatum is next investigated (FIG. 8d). Two types of activation patterns are observed. In a majority of recorded neurons, blue light pulses induce a small depolarizing current (˜20 pA) in the voltage-clamp mode, and induce delayed-yet-vigorous firing of action potentials in the current-clamp mode (FIG. 8e, left, n=12 neurons). […] In the other subset of neurons, brief light pulses rapidly evoked strong inward currents (100-1000 pA) and drove bursting firing of action potentials (FIG. 8e, right, n=6 neurons). […] Of note, unlike generated by ChR2 optogenetics^53, the action potential evoked by cOpn5 photostimulation is not time-locked to light pulses.\nd, Schematic diagram depicts optogenetic stimulation and whole-cell patch-clamp recording of cOpn5-expressing neurons in the cortex, striatum and hippocampus."}, "[6]": {"details": "cOpn5- and GRABATP-expressing mice, 920 nm light"}}, "data": [{"molecule": "B1", "values": [{"measurement": "light-induced increase in the level of inositol phosphate (IP1)", "setting": "[1]", "result": "light-induced increase"}, {"measurement": "time of foraging high fat food pellets on repeated light stimulation", "setting": "[2]", "result": "significantly increase in the time of foraging"}, {"measurement": "initial quiescence before flash frequency increases", "setting": "[3]; cOpn5- and GRABATP-expressing mice", "result": "~1", "unit": "min"}, {"measurement": "diameter of individual ATP flashes", "setting": "[3]; [6]", "result": "20-100 μm"}, {"measurement": "duration of individual ATP flashes", "setting": "[3]; [6]", "result": "~1", "unit": "min"}, {"measurement": "time to peak ATP flash frequency", "setting": "[3]; cOpn5-expressing mice", "result": "~5", "unit": "min"}, {"measurement": "ATP flash frequency versus proinflammatory (LPS) treatment of non-cOpn5-expressing mice", "setting": "[3]; mouse, in vivo", "result": "~25", "unit": "times"}, {"measurement": "two-photon activation wavelength", "setting": "[3]; pulsed laser for two-photon imaging", "result": "≥ 920", "unit": "nm"}, {"measurement": "peak ATP flash frequency", "setting": "[3]; within the imaging area (640×640 μm2), cOpn5-expressing mice", "result": "~50", "unit": "flashes per min"}, {"measurement": "Ca2+ transients on blue light illumination", "setting": "[4]", "result": "~8 ΔF/F"}, {"measurement": "firing rate of neurons after pulsed 473 nm light stimulation", "setting": "[5]; 1 Hz, 5 s, n=18", "result": "increased"}, {"measurement": "firing rate across repetitive trials of light stimulation", "setting": "[5]; 10 ms/pulse at 10 Hz", "result": "non-attenuated"}, {"measurement": "spike latency after the initial light pulse, higher frequencies of light pulses", "setting": "[5]; majority-type neurons", "result": "~3", "unit": "s"}, {"measurement": "spike latency after the initial light pulse, lower frequency of light pulses", "setting": "[5]; majority-type neurons", "result": "~5", "unit": "s"}, {"measurement": "inward currents evoked by brief light pulses", "setting": "[5]; other subset of neurons (n=6)", "result": "100-1000 pA"}, {"measurement": "depolarizing current induced by blue light pulses", "setting": "[5]; voltage-clamp, majority of recorded neurons (n=12)", "result": "~20", "unit": "pA"}]}]}
